Measured values as given in patent US20190284293A1 (Bristol-Myers Squibb, published 2019).
Changes are numbered by the printed parent chain. Names may count otherwise.

T1: rhCD73 bound to his-tag magnet beads (human, UniProt P21589 27-547, limits assumed)
T1 sequence: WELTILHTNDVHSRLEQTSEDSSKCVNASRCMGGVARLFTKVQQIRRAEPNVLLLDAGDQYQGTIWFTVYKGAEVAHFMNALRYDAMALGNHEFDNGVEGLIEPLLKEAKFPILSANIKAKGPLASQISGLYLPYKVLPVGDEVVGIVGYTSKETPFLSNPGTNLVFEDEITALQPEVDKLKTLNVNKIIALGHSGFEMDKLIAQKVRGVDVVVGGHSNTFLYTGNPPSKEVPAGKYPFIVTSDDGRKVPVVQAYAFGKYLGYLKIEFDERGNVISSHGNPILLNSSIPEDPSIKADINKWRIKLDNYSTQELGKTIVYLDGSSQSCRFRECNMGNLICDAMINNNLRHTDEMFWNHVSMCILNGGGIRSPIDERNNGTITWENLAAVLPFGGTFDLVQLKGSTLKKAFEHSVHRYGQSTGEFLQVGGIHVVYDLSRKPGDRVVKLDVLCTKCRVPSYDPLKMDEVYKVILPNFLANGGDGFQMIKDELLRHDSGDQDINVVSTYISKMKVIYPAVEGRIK

T2: human CD73 on cells (human, UniProt P21589 27-549)
T2 sequence: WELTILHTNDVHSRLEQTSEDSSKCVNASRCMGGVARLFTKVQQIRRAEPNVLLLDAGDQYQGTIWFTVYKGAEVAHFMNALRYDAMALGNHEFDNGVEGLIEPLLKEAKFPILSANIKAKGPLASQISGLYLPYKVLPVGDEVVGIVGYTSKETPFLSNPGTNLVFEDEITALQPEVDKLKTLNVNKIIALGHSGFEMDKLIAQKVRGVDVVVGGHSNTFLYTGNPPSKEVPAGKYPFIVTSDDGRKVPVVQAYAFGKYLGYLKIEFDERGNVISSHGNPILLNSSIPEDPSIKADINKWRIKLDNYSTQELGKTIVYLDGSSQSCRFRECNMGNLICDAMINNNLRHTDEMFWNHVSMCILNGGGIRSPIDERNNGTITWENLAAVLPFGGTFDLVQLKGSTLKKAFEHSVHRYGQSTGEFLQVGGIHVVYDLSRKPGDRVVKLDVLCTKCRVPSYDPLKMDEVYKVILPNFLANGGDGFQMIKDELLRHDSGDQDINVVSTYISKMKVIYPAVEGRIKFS

T3: N-hCD73-his (N-terminal domain of human CD73, residues 26-336, His tag) (human, UniProt P21589 26-336)
T3 sequence: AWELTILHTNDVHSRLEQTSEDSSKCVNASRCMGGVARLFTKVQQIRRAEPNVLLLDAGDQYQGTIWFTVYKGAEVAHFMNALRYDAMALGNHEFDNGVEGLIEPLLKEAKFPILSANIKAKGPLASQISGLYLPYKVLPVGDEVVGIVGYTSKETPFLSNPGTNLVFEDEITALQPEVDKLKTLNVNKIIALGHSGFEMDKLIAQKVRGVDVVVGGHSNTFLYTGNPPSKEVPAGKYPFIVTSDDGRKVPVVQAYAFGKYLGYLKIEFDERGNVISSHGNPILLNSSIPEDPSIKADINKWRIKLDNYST

B1: 5F8 (antibody, human IgG1, kappa, V domains shown)
VH: EVQLVESGGGLVQPGGSLRLSCAASGFTFSSYWMHWVRQAPGKGLVWVSRIISDGSSTGYADSVKGRFTISRDNAKNTLYLQMNSLRAEDTAVYYCAREFSSGWYFDYWGQGTLVTVSS
VL: AIQLTQSPSSLSASVGDRVTITCRASQGISSALAWYQQKPGKAPKLLIYDASSLESGVPSRFSGSGSGTDFTLTISSLQPEDFATYYCQQFSSYPRTFGQGTKVEIKR
notes: IgG1za; VK2 also expressed; also called 5F8-1
B2: 11A6 (antibody, human IgG1, kappa, V domains shown)
VH: EVQLVESGGNLVQPGRSLRLSCAASGFTFDDYAMHWVRQAPGKGLEWVSGISWNNNDIGYADSVKGRFIISRDNAKNSLYLQMNSLRPEDTALYYCVKGYYVILTGLDYWGQGTPVTVSS
VL: DIQMTQSPSSLSASVGDRVTITCRASQGISSWLAWYQQKPEKAPKSLIYAASSLQSGVPSRFSGSGSGTDFTLTISSLQPEDFATYYCQQYNSYPLTFGGGTKVEIKR
notes: IgG1za; also called 11A6-1
B3: 10D2 (antibody, human IgG4, kappa, V domains shown)
VH: QVQLVESGGGVVQPGRSLRLSCAASGFTFSNYGLHWVRQAPGKGLEWVAVIRYDGSNKYYADSVKGRFTISRDNSKNTLYLQMSSLRAEDTAVYYCARGGSSWYPDGLDVWGQGTTVTVSS
VL: B2 VL
notes: also called 10D2-2
B4: 7A11 (antibody, human IgG1, kappa, V domains shown)
VH: EVQLVESGGGLVQTGRSLRLSCAASGFTFDDYAMHWVRQAPGKGLEWVSDISWNSDIIGYADSVKGRFTISRDNAKNSLYLQMNSLRAEDTALYYCAKDIYGSGSSFFDYWGQGILVTVSS
VL: B2 VL with G28Y, N92H, L96P, G100Q, K103R, V104L
notes: IgG1za; also called 7A11-1
B5: 24H2 (antibody, human IgG4, kappa, V domains shown)
VH: B3 VH with L34M, R52W, S56G, Y80F, S84N, G107A, L108F, V110I, T116M
VL: B2 VL
notes: also called 24H2-1
B6: CD73.4-IgG2.3-plusTHT (antibody)
heavy: QVQLVESGGGVVQPGRSLRLSCAASGFTFSNYGMHWVRQAPGKGLEWVAVILYDGSNKYYPDSVKGRFTISRDNSKNTLYLQMNSLRAEDTAVYYCARGGSSWYPDSFDIWGQGTMVTVSSASTKGPSVFPLAPCSRSTSESTAALGCLVKDYFPEPVTVSWNSGALTSGVHTFPAVLQSSGLYSLSSVVTVPSSNFGTQTYTCNVDHKPSNTKVDKTVERKSCVETHTCPPCPAPPVAGPSVFLFPPKPKDTLMISRTPEVTCVVVDVSHEDPEVQFNWYVDGVEVHNAKTKPREEQFNSTFRVVSVLTVVHQDWLNGKEYKCKVSNKGLPAPIEKTISKTKGQPREPQVYTLPPSREEMTKNQVSLTCLVKGFYPSDIAVEWESNGQPENNYKTTPPMLDSDGSFFLYSKLTVDKSRWQQGNVFSCSVMHEALHNHYTQKSLSLSPGK
light: not shown
B7: CD73.4-IgG2.5-plusTHT (antibody)
heavy: B6 heavy with C135S, S223C
light: not shown
B8: CD73.4-IgG2.3-plusGGG (antibody)
heavy: B6 heavy with T227G, H228G, T229G
light: not shown
B9: CD73.4-IgG2.5G1-KH (antibody)
heavy: QVQLVESGGGVVQPGRSLRLSCAASGFTFSNYGMHWVRQAPGKGLEWVAVILYDGSNKYYPDSVKGRFTISRDNSKNTLYLQMNSLRAEDTAVYYCARGGSSWYPDSFDIWGQGTMVTVSSASTKGPSVFPLAPSSRSTSESTAALGCLVKDYFPEPVTVSWNSGALTSGVHTFPAVLQSSGLYSLSSVVTVPSSNFGTQTYTCNVDHKPSNTKVDKTVERKCCVECPPCPAPPVAGPSVFLFPPKPKDTLMISRTPEVTCVVVDVSHEDPEVKFNWYVDGVEVHNAKTKPREEQYNSTYRVVSVLTVLHQDWLNGKEYKCKVSNKALPAPIEKTISKAKGQPREPQVYTLPPSREEMTKNQVSLTCLVKGFYPSDIAVEWESNGQPENNYKTTPPVLDSDGSFFLYSKLTVDKSRWQQGNVFSCSVMHEALHNHYTQKSLSLSPGK
light: not shown
B10: CD73.4-IgG2.5 (antibody)
heavy: B9 heavy with K274Q, Y296F, Y300F, L309V, A327G, A339T, V397M
light: not shown
B11: CD73.4-IgG2.3G1-KH (antibody)
heavy: B9 heavy with S135C, C223S
light: not shown
B12: CD73.4-IgG2.5G1.1f-KH (antibody)
heavy: B9 heavy with A330S, P331S
light: not shown
B13: CD73.6-IgG2-C219S-IgG1.1f (antibody)
heavy: B9 heavy with G55S, S135C, C223S, A330S, P331S
light: not shown
notes: also called CD73.6-IgG2CS IgG1.1f; mAb-CD73.6-Vh-hHC-IgG2-C219S-IgG1.1f

biological target: T1, rhCD73 bound to his-tag magnet beads; assay: cell-based or functional assay

EC50 (nM), inhibition of bead-bound human CD73 enzymatic activity [nM]	Binder
5.76	B1
3.12	B2
6.94	B3
2.86	B4
4.18	B5

biological target: T2, human CD73 on cells; assay: cell-based or functional assay

IC50 (nM), cAMP HTRF assay, Calu-6 with HEK293/A2AR cells [nM]	Ymax, cAMP HTRF assay (percent of 100 nM 11F11 control) [%]	Binder
13.2	80	B1
4.87	84	B2
0.95	45	B4

biological target: T2, human CD73 on cells; assay: cell-based or functional assay; remark: another data set of the same source

CD73 Inhibition S:B (inhibition versus background)	CD73 Inhibition EC50 (nM), cAMP assay, Calu6 [nM]	Binder
33	–	B6
44	0.9	B7
–	1.26	B8
42	0.44	B9
51	2.17	B10
52	1.7	B11
45	0.87	B12

biological target: T2, human CD73 on cells; assay: cell-based or functional assay; remark: another data set of the same source

EC50 Calu6 inhibition [nM]	EC50 H292 inhibition [nM]	EC50 SKMEL24 inhibition [nM]	Binder
8.1	13.5	110	B1
2.21	–	–	B2
0.95	1.31	3.72	B4

biological target: T2, human CD73 on cells; assay: binding titration on Calu6 cells, average of 2-6 experiments

EC50 [nM]	Binder
11.7	B1
1.93	B2
0.35	B4

biological target: T2, human CD73 on cells; assay: cell-based or functional assay; remark: another data set of the same source

Ymax, high-content internalization assay (percent of 100 nM 11F11) [%]	EC50 (nM), high-content internalization assay, Calu6, 2 h [nM]	Binder
29	–	B3
50	2.59	B4
51	8.2	B5

biological target: T3, N-hCD73-his (N-terminal domain of human …); assay: SPR, mAb captured on protein A
Method: For these experiments, protein A (Pierce) was immobilized to a density of 3000-4000 RU on flow cells 1-4 of a CM5 sensor chip (GE Healthcare) using standard ethyl(dimethylaminopropyl) carbodiimide (EDC)/N-hydroxysuccinimide […] chemistry, with ethanolamine blocking, in a running buffer of 0.01 M HEPES pH 7.4, 0.15 M NaCl, 3 mM EDTA, 0.005% v/v tween 20. […] The running buffer for the kinetic experiments was 10 mM sodium phosphate, 130 mM sodium chloride, 0.05% tween 20, pH 7.1. The surfaces were regenerated after each cycle using two 30 s pulses of 10 mM glycine pH 1.5 at a flow rate of 30 μl/min. Sensogram data was double-referenced and then fitted to a 1:1 Langmuir model using Biacore T100 evaluation software v2.0.4, to determine the association rate constant (ka), the dissociation rate constant (kd), and the equilibrium dissociation constant (KD).

Kd [nM]	koff [s⁻¹]	kon [M⁻¹ s⁻¹]	Binder
41	0.006	150000	B1
0.72	0.00022	300000	B13
140	0.0076	55000	B2
1.6	0.00095	610000	B3
0.43	0.00038	880000	B4
14	0.0032	230000	B5
